For series [1], the system named is BL21(DE3, Star) E. coli strain expressing F30-Pepper-1. The experiment in a line: Labeling of bacterial RNA. Particulars: 2 μM III-3 in PBS, 4 hours after IPTG induction. Type of series: cell-based. From the text: In order to test the effect of Pepper-III-3 in bacteria, a bacterial expression plasmid expressing F30-Pepper-1 was constructed. Primers were used to amplify F30-Pepper-1 in Example 2. Primers were used to amplify pET28a to remove the promoter and multiple cloning site regions. The obtained F30-Pepper-1 fragment and the linearized pET28a were ligated according to the commonly used experimental method (4). The obtained recombinant plasmid was named pET28a-T7-F30-Pepper-1.
The recombinant plasmid pET28a-T7-F30-Pepper-1was transformed into BL21(DE3, Star) E. coli strain. A single clone was picked and cultured at 37° C. to an OD600 around 0.2 before addition of 1 mM IPTG to induce the expression of F30-Pepper-1. 4 hours after induction, the bacteria were harvested and resuspended in PBS solution containing 2 μM III-3. BL21 (DE3, Star) E. coli transformed with pET28a empty vector was used as the control.

For series [2], the system named is BY4741 strain expressing F30-Pepper-1. The experiment in a line: Labeling of yeast RNA. As to conditions: 2 μM III-3 in PBS, 10 hours after galactose induction. Type of series: cell-based. The source says:
In order to test the effect of Pepper-III-3 in yeast, a yeast expression plasmid expressing F30-Pepper-1 was constructed. The F30-Pepper-1 DNA fragment in Example 2 was amplified using primers, and the amplified F30-Pepper-1 fragment was inserted into the pYES2.1TOPO TA vector according to the commonly used experimental method (4). The obtained recombinant plasmid was named pYES2.1-F30-Pepper-1.
The recombinant plasmid pYES2.1-F30-Pepper-1 was transformed into BY4741 strain, and a single clone was picked and cultured at 30° C. to an OD600=0.1 before addition of 1 mM galactose to induce the expression of F30-Pepper-1. 10 hours after induction, the yeast cells were harvested and resuspended in PBS containing 2 μM III-3. The untreated BY4741 strain was used as the control.

The nature of another series: Pepper-based GTP sensor. Type of series: biochemical. As to conditions: with III-3, presence vs absence of GTP; linkage 3.
Series [3] in a line: RNA extraction and purification with Mal-III-3 beads, in-gel fluorescence. Particulars: gel incubated with 5 μM III-3 for 30 min. The procedure: In order to use Pepper for RNA extraction and purification, the pCDNA3.1 hygro(+)-TagBFP-4Pepper-7 and pCDNA3.1 hygro(+)-mCherry-4Pepper-7 plasmids in Example 12 were transfected into COS-7 cells, respectively. 24 hours after transfection, the cells were collected and the total RNA of the cells was extracted using the Easyp Super Total RNA Extraction Kit (Promega). The extracted total RNA was dissolved in buffer containing 40 mM HEPES, pH 7.4, 125 mM KCl, 5 mM MgCl2. The RNA was incubated at 70° C. for 10 min and placed at room temperature for more than 30 min.
500 μL activated Thiol Sepharose 4B (GE Healthcare) was washed twice with 500 μL PBS, and then was incubated with PBS containing 10 mM TCEP (Sigma) for 1 h at room temperature. After washing twice with 500 μL PBS, maleamide conjugated III-3 fluorophore (Mal-III-3) was added to react for 30 min at room temperature, and was washed three times with 500 μL PBS. The treated total RNA was incubated with the treated beads at room temperature. After 30 minutes, the mixture was centrifuged at 4000 rpm for 2 minutes, and the supernatant was discarded. […]
The recovered RNA was validated by electrophoresis. The gel was incubated with buffer containing 5 μM III-3 in 40 mM HEPES, pH 7.4, 125 mM KCl, and 5 mM MgCl2 for 30 min, and the fluorescence of 4Pepper-III-3 in the gel was detected.

Series [4] can be described thus: Fluorescence activation of III-3 fluorophore by Pepper aptamers and mutants. Particulars: 1 μM III-3 with 5 μM RNA. Type of series: biochemical. As to the method: Preparation of Pepper or Pepper mutant aptamer according to the commonly used experimental method (1). 5 μM aptamer and 1 μM fluorophore were incubated in the detection buffer (40 mM HEPES, pH 7.4, 125 mM KCl, 5 mM MgCl2, 5% DMSO). The maximal excitation and emission peaks of the aptamer-fluorophore complexes were determined using a Synergy Neo2 multifunctional microplate reader. The fluorescence intensities of the aptamer-fluorophore complexes at the maximal excitation and emission peaks were determined using a Synergy Neo2 multifunctional microplate reader. The control sample (1 μM fluorophore without aptamer) was also measured under the same conditions. Then the ratios of fluorescence intensity were calculated. For example, the fluorescence maximal excitation and emission peaks of the complex of 5 μM F30-Pepper-2 and 1 μM III-3 fluorophore are 485 nm and 530 nm, respectively. The fluorescence intensity of the complex at 485±10 nm excitation and 530 nm±10 nm emission was 36,000, the fluorescence intensity of the control sample (1 μM III-3 fluorophore only) under the same detection conditions was 10. Thus, the activation ratio of F30-Pepper-2 aptamer on III-3 fluorophore was 3,600-fold.
In order to detect the fluorescence activation of III-3 fluorophore by different Pepper mutant, the Pepper-1 sequence in F30-Pepper-1 was mutated according to Table 1. […] 1 μM III-3 was incubated with […] RNA and their fluorescence activation folds were determined according to the commonly used experimental method (5). […] In summary, many Pepper mutants containing single and multiple mutants still retain the ability to activate the fluorescence of III-3 fluorophore.
In order to detect the activation of III-3 by modified Pepper, base-modified Pepper-3 was synthesized (SEQ ID NO: 6, the underlined nucleotides in […] GGCC contain deoxyribonucleotide bases) and Pepper-4 (SEQ ID NO: 7, the underlined nucleotides in […] GGGCC contain 2′-F modification) (synthesized by Shanghai GenePharma Co., Ltd), which contain deoxyribonucleotides replacement (shaded bases in FIG. 5A) or 2′-F modification (shaded bases in FIG. 5B) in the stem-loop region of Pepper. Detection of the fluorescence activation of III-3 fluorophore by these modified Peppers was carried out according to the commonly used experimental method (5).

Series [5] is described as follows: Binding constant of Pepper and III-3. Particulars: 2 nM F30-Pepper-1 with different concentrations of III-3. As to the method: In order to detect the binding constant of Pepper and III-3, 2 nM F30-Pepper-1 was incubated with different concentrations of III-3 and their fluorescence was determined.
Series [6] can be described thus: Native PAGE oligomerization identification. As to conditions: F30-Broccoli and F30-2dBroccoli as controls. The source says: In order to detect whether Pepper binds to III-3 in the form of monomer or polymer, F30-Pepper-1 was identified by the Native PAGE using the monomeric F30-Broccoli (SEQ ID NO: 4) and F30-2dBroccoli (SEQ ID NO: 5) (Filonov et al. Journal of the American Chemical Society 2014. 136: 16299-16308; Filonov et al. Chemistry & biology 2015. 22: 649-660) as the controls. The fluorescence imaging result was compared with the staining result by SYBR Gold (universal nucleic acid dye that was purchased from Invitrogen).

Series [7] is described as follows: Thermostability of Pepper (fluorescence after 5 minutes at different temperatures). Type of series: physicochemical. Particulars: 1 μM aptamer with 10 μM fluorophore (III-3 for F30-Pepper-1, DFHBI-1T for F30-Broccoli), 5 minutes at each temperature. As to the method: In order to test the thermostability of Pepper, 10 μM III-3 was incubated with 1 μM F30-Pepper-1, and then was placed at different temperatures for 5 minutes before the fluorescence was determined. 10 μM DFHBI-1T was incubated with 1 μM F30-Broccoli to be as the control.

The values below come from patent publication US12662676B2, “Aptamer nucleic acid molecule, and complex and application thereof” (EAST CHINA UNIVERSITY OF SCIENCE AND TECHNOLOGY, priority 2019, dated 2026).

The Kd is a measure of binding affinity in units of concentration.

Method for Pepper-based GTP sensor: In order to construct Pepper-based sensors for detecting analytes, the nucleotides in the stem-loop region in the Pepper-1 (SEQ ID No: 2) structure were replaced with the aptamers that can specifically recognize and bind adenosine and guanosine (GTP), respectively. The aptamers Pepper-1 were fused by linkage with different lengths and different nucleotides (FIG. 10A). The RNA sensors were prepared according to the commonly used experimental method (1). The RNA sensors were incubated with III-3 fluorophore, and the fluorescence was measured in the presence or absence of adenosine or GTP using a multifunctional microplate reader.

With `CN(CCO)c1ccc(/C=C(\C#N)c2ccc(C#N)cc2)cc1` [III-3], in series [1], the “fluorescent labeling of RNA in bacteria” value was “bright yellow-green fluorescence only when F30-Pepper-1 was expressed and in the presence of III-3”. The “RNA labeling in yeast cells” value in series [2] is “bright yellow-green fluorescence only when F30-Pepper-1 was expressed and in the presence of III-3”.

For the molecule “GTP sensor: Pepper-1 with stem-loop replaced by GTP aptamer, linkage 3, SEQ ID No:22 (UCCCCAAUCGUGGCGUGUCGUAAGAAGAGCACGUAUACGCAAUAACUGGCGCCGGGA; listed as RNA, chemistry not given here)”, in “Pepper-based GTP sensor”, the “activation fold of GTP sensor” value is on record as 10 folds.

B1: mCherry-4Pepper: mCherry mRNA fused with 4Pepper-7, SEQ ID No: 26 (nucleic acid)
chain: AUGGUGAGCAAGGGCGAGGAGGAUAACAUGGCCAUCAUCAAGGAGUUCAUGCGCUUCAAGGUGCACAUGGAGGGCUCCGUGAACGGCCACGAGUUCGAGAUCGAGGGCGAGGGCGAGGGCCGCCCCUACGAGGGCACCCAGACCGCCAAGCUGAAGGUGACCAAGGGUGGCCCCCUGCCCUUCGCCUGGGACAUCCUGUCCCCUCAGUUCAUGUACGGCUCCAAGGCCUACGUGAAGCACCCCGCCGACAUCCCCGACUACUUGAAGCUGUCCUUCCCCGAGGGCUUCAAGUGGGAGCGCGUGAUGAACUUCGAGGACGGCGGCGUGGUGACCGUGACCCAGGACUCCUCCCUGCAGGACGGCGAGUUCAUCUACAAGGUGAAGCUGCGCGGCACCAACUUCCCCUCCGACGGCCCCGUAAUGCAGAAGAAGACCAUGGGCUGGGAGGCCUCCUCCGAGCGGAUGUACCCCGAGGACGGCGCCCUGAAGGGCGAGAUCAAGCAGAGGCUGAAGCUGAAGGACGGCGGCCACUACGACGCUGAGGUCAAGACCACCUACAAGGCCAAGAAGCCCGUGCAGCUGCCCGGCGCCUACAACGUCAACAUCAAGUUGGACAUCACCUCCCACAACGAGGACUACACCAUCGUGGAACAGUACGAACGCGCCGAGGGCCGCCACUCCACCGGCGGCAUGGACGAGCUGUACAAGUAACUCGCUAGAGCAUGGUUAAGCUUCCCACGGAGGAUCCCCAAUCGUGGCGUGUCGGCCUCUCCCAAUCGUGGCGUGUCGGCCUCUCCCAAUCGUGGCGUGUCGGCCUCUCCCAAUCGUGGCGUGUCGGCCUCUCUUCGGAGAGGCACUGGCGCCGGAGAGGCACUGGCGCCGGAGAGGCACUGGCGCCGGAGAGGCACUGGCGCCGGGAUCCUCCGUGGG
In the case of B1, in series [3], the “in-gel fluorescence of recovered RNA” value is on record as “bright Pepper-III-3 fluorescence signals”.

B2: F30-Pepper-1: RNA aptamer, Pepper-1 in F30 scaffold RNA, SEQ ID NO: 2 (nucleic acid)
chain: UUGCCAUGUGUAUGUGGGUUCGCCCACAUACUCUGAUGAUCCCCAAUCGUGGCGUGUCGGCCUGCUUCGGCAGGCACUGGCGCCGGGAUCAUUCAUGGCAA
modifications: RNA, backbone not given here
Take B2: the Activation folds in series [4] (Activation of III-3 by Pepper mutants with multiple mutations) and in series [4] (Activation of III-3 by Pepper mutants with single mutation) was 3600 folds throughout. In addition, the Kd in series [5] came to 3.5 nM. Further, the “form in which aptamer binds III-3 (monomer or polymer)” value in series [6] is reported as “monomer”. The Tm in series [7] turned out to be 55 °C.
